Source: patent US20220073643A1 (NANJING GENSCRIPT BIOTECH, published 2022)
Changes are numbered by the printed parent chain.

B1: humanized 207F8G5-VH1.1 + VL1.1 (antibody, human IgG1, kappa, V domains shown)
VH: QVQLVQSGAEVKKPGASVKVSCKASGFTFTSYNIHWVKQAPGQGLEWMGYISPGNGGSNYNLKFKDRVTMTSDTSISTAYMELSRLRSDDTAVYFCATGRGFAYWGQGTLVTVSS
VL: DIVMTQSPDSLAVSPGERATMSCKSSQSLFNSGNQKNYLIWYQQKPGQPPKLLIYRASTRDSGVPDRFSGSGSGTDFTLTISSLQAEDVAVYYCQNDYSYPLTFGGGTKLEIKR
notes: humanized, human IgG1/kappa constant regions
B2: humanized 207F8G5-VH1.3 + VL1.1 (antibody, human IgG1, kappa, V domains shown)
VH: B1 VH with K38R, M48I, V68A
VL: B1 VL
notes: as for B1
B3: humanized 207F8G5-VH1.7 + VL1 (antibody, human IgG1, kappa, V domains shown)
VH: B1 VH with M70L, F95Y
VL: B1 VL with P15L, M21I, S22N
notes: as for B1
B4: 392C2F10 (antibody, V domains shown)
VH: EVQLQQSGPELVKPGASMKISCKASGYSFTGYTMNWVKQSLGKNLEWIGLINPFNGGTTYNQKFKGKATLTVDKSSSTAYMELLSLTSDDSAVYYCTRGDYWGQGTTLTVSS
VL: DIVMTQSPSSLTVTAGEKVTMSCKSSQSLLNSGNQKNYLTWYQQKPGQPPKLLIYWASTRESGVPDRFAGSGSGTDFTLTISSVQAEDLAVYYCQSDYSYPTFGAGTKLELK
notes: mouse hybridoma mAb
B5: 430A11H9 (antibody, V domains shown)
VH: DVKLVESGGGLVKPGGSLKLSCAASGFTFSSYTMSWVRQTPEKRLEWVATISSGGSYTYYPDSVKGRFTISRDNAKNTLYLQMSSLKSEDTAMYYCTRDPGYFAYWGQGTLVTVSA
VL: DIQMTQSPASLSASVGETVTITCRASENIYSYLAWYQQKQGKSPQLLVYNAKTLAEGVPSRFSGSGSGTQFSLKINSLQPEDFGSYYCQHHYGTPYTFGGGTKLEIK
notes: mouse hybridoma mAb
B6: 423C10E1 (antibody, V domains shown)
VH: DVQLVESGGGLVQPGGSRKLSCVTSGFTFSSFGMHWVRQAPEKGLEWVAFISGGGSPIFYADSVKGRFTVSRDNPKNTLFLQMTGLRSEDTAMYFCARFYFGNSFAYWGQGTLVTVSA
VL: DIVMTQSPSSLTVTAGEKVTMNCRSSQSLFNSGNQKNYLTWYQQKPGQSPKLLIYWASTRESGVPVRFTGSGSGTDFTLTISSVQAEDLAVYYCQTSFNYPLTFGPGTKLELK
notes: mouse hybridoma mAb
B7: 420H7E6 (antibody, V domains shown)
VH: B6 VH with V37I
VL: B6 VL with T5A, S49P, S97G, N99S
notes: mouse hybridoma mAb
B8: 410H6H3 (antibody, V domains shown)
VH: DVLLVESGGGLVQPGGSRKLSCAASGFTFSSSGMHWVRQAPEKGLEWVAYISSGSNTIYYADTLKGRFTISRDNPKNTLFLQMTSLRSEDTAMYYCARIYYGNSFVYWGQGTLVTVSA
VL: DIVMTQSPSSLTVTAGEKVIMSCKSSQSLLNSGNQKNYLTWYQQKPGQPPKMLIYWASTRESGVPDRFRGSGSGTDFTLTISSVQAEDLAVYYCQNNYYYPLTFGTGTKLALK
notes: mouse hybridoma mAb
B9: 370E2B12C3 (antibody, V domains shown)
VH: QVQLKESGPGLVAPSQSLSITCTVSGFSLTTYGVHWVRQPPGKGLEWLGVIWAGGSTNYNSALMSRVSINKDNSKSQVFIKMNSLQADDTALYYCARAAYYGNGLDYWGQGTTLTVSS
VL: DIVMTQSPSSLTVTAGEKVTMSCKSSQTLLNSGNQKNYLTWYQQKPGQPPKLLIYWASTGESGVPDRFTGSGSGTDFTLTISSVQAEDLAVYFCQNAYFYPFTFGGGTKLEIK
notes: mouse hybridoma mAb
B10: 406G3C4 (antibody, V domains shown)
VH: EIQLQQSGPELMKPGASVRISCKASGYSFISYYIYWVKQSHGKGLEWIGYIDPFNGNTNYNQKFKGKATLTVDRSSSTAYIHLNSLTSEDSAVYYCAIVNGYGRGAMDYWGQGTSVTVSS
VL: QIVLTQSPAIMSASPGEKVTMTCSASSSISYMHWYQQKSGTSPKRWIYDTSKLASGVPARFSGSGSGTSYSLTISSMEAEDAATYYCQQWSSNPLTFGDGTKLELK
notes: mouse hybridoma mAb
B11: 426D9F6 (antibody, V domains shown)
VH: DVQLVESGGGLVQPGGSRKLSCAASGFTFSGFGMHWIRQTPEKGLEWVAYISSGSRPIYYADTVKGRFTISRDNPKNTLFLQMTSLRSEDTAMYFCARFYYGNSFDHWGQGTLVTVSA
VL: DIVMTQSPSFLTVTAGEKVTMSCKSSQSLLNSGNQRNYLTWYQQKPGQPPKLLIYWASTRESGVPDRFTGSGSGTDFTLTVSSVQAEDLALYYCQNAYSFPLTFGAGTKLELK
notes: mouse hybridoma mAb
B12: 429H6C5 (antibody, V domains shown)
VH: DVQLVESGGGLVQPGGSRKLSCAASGFTFSSFGMHWVRQAPEKELEWVAYISSGSSTIYYAHTVKGRFTISRDNPKNTLFLRMTSLGSEDTAMYYCVRFYYGNSFVNWGQGTLVTVSA
VL: B8 VL with V13A, I20T, R69A, N97A, Y99I, T106A, K109R, A111E
notes: mouse hybridoma mAb
B13: 418B8B10 (antibody, V domains shown)
VH: B11 VH with G31S, I37V, T40A, R56S, A61T
VL: B8 VL with I20S, L30F, S32R, N37S, K45R, M52L, R69T, Y99I, T106A, A111E
notes: mouse hybridoma mAb
B14: 423B2B5 (antibody, V domains shown)
VH: B11 VH with G31S, I37V, T40A, R56S, A61S, T84S, F99I
VL: B11 VL with F10S, S22N, R36K, V81I, L91V, A97D, F100Y
notes: mouse hybridoma mAb
B15: 416F12F3 (antibody, V domains shown)
VH: B12 VH with E44G, T63S, R82Q, V97A, V106A, N107Y
VL: B8 VL with I20T, M21L, R69T, N97A, Y99T, T106A, K109R, A111E
notes: mouse hybridoma mAb
B16: 419B5G9 (antibody, V domains shown)
VH: DVQLVESGGGLVQPGGSRKLSCAASGFTFSTFGMHWVRQAPEKGLEWVAYISGGSTTIFYADTVKGRFTISRDNPKNTLFLQMTSVRSEDTAMYYCARFYYGNSFAYWGPGTLVTVST
VL: B11 VL with F10S, R36K, L52M, V81I, L91V, F100Y
notes: mouse hybridoma mAb
B17: 407H12E6 (antibody, V domains shown)
VH: B11 VH with F29V, G31S, I37V, T40A, R56S, M93I
VL: B11 VL with F10S, A15T, R36K, P49S, V81I, A86T, L91V, Y93F, A97N, S99F
notes: mouse hybridoma mAb
B18: 420H3H9 (antibody, V domains shown)
VH: B12 VH with E44G, T63S, R82Q, V97A, V106A, N107Y
VL: B11 VL with F10S, M21L, R36K, L52M, V81I, L91D, S99T, F100Y, K109R
notes: mouse hybridoma mAb
B19: 413B1C9 (antibody, V domains shown)
VH: B11 VH with G31S, I37V, T40A, R56S
VL: B8 VL with A15T, I20S, L30F, S32R, N37S, M52L, R69T, Y99I, T106A, A111E
notes: mouse hybridoma mAb
B20: 422F4B6 (antibody, V domains shown)
VH: B8 VH with L3Q, T28S, S32F, N56S, T57P, L64V, T69I, Y95F, V106A
VL: B9 VL with G60R, F93Y, F99S, F102L, G106S, I112L
notes: mouse hybridoma mAb
B21: 414A5F7 (antibody, V domains shown)
VH: B8 VH with L3Q, S32F, N56S, T57P, L64V, Y95F, V106A
VL: B8 VL with I20A, S28T, M52L, I54L, R69T, N97A, T106S, A111E
notes: mouse hybridoma mAb
B22: 405G8F11 (antibody, V domains shown)
VH: B11 VH with A23V, A24T, G31S, I37V, T40A, R56S, T84S, D106A, H107Y
VL: DIVMTQSPSSLTVTAGEKVTMNCKSSQSLLNSGNQKNYLTWYQQKLGQPPKLLMYWASTRESGVPDRFTGSGSGTDFTLTISSVQAEDLAVYFCQSAFSYPLTFGAGTKLELK
notes: mouse hybridoma mAb
B23: 412B6E4 (antibody, V domains shown)
VH: B12 VH with M34V, E44G, T63S, R82Q, M93T, V97A, V106A, N107Y
VL: B8 VL with I20T, R69T, N97A, Y99T, T106A, K109R, A111E
notes: mouse hybridoma mAb
B24: 410A9A9 (antibody, V domains shown)
VH: B11 VH with G31S, I37V, T40A, R56S, R98T, D106A, H107Y
VL: B9 VL with P46S, G60R, F93Y, F99S, F102V, G106S, L110V, I112L
notes: mouse hybridoma mAb
B25: 393C2C5 (antibody, V domains shown)
VH: B11 VH with G31S, I37V, T40A, R56S, R98T, D106A, H107Y
VL: B9 VL with P46S, G60R, F93Y, F99S, F102V, G106S, L110V, I112L
notes: mouse hybridoma mAb
B26: 426H6E11 (antibody, V domains shown)
VH: B11 VH with K65Q, A118S
VL: B11 VL with S7F, S28T, R36K, V81I, K109N
notes: mouse hybridoma mAb
B27: 430B3F1 (antibody, V domains shown)
VH: B11 VH with S55G, K65Q, V116I, A118S
VL: B11 VL with R36K, V81I
notes: mouse hybridoma mAb

target: T1, human Claudin18.2 (human); assay: FACS, Claudin18.2-HEK293 cells
T1 construct: also called CLDN18.2
Protocol: The binding of chimeric antibodies to Claudin18.2 expressed on HEK293 cells was determine by FACS analysis. Briefly, HEK293 cells expressing human Claudin18.2 as prepared in the foregoing Example were harvested and incubated with anti-Claudin18.2 mAbs at 4° C. for 40 min, followed by fluorophore (iFluor 647)-labeled goat […] IgG (H+L) secondary antibodies at 4° C. for 0.5 hour. The samples were then analyzed by flow cytometry.
After initial screening of cell binding with transfected supernatants, the binding pattern of chimeric and up to 3 humanized antibodies on Claudin18.2 expressed on HEK293 cells were plotted with antibody in 3× serial dilutions, starting concentration of 45 μg/ml, following the protocol described in Example 3.

EC50 | Span | Binder
0.168 µg/mL | 14000 | B1
0.143 µg/mL | 13800 | B2
0.145 µg/mL | 13800 | B3

target: T1, human Claudin18.2; assay: cell ELISA, Claudin18.2-expressing HEK293T cells
How it was run: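 Claudin18.2-expressing HEK293T stable cells (1.5×10⁶ cells/ml in 5% skim milk/PBS blocking buffer) were incubated 1 h at room temperature in plates pre-blocked overnight at 4° C. EC₅₀ was derived by four-parameter curve fit.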

EC50 | Binder
350 nM | B4
~1.7 nM | B5
2.46 nM | B6
2.94 nM | B7
45.5 nM | B8
0.522 nM | B9
12.6 nM | B10
2.14 nM | B11
13.2 nM | B12
3.17 nM | B13
12.7 nM | B14
14.7 nM | B15
22.5 nM | B16
2.39 nM | B17
20.7 nM | B18
24.6 nM | B19
2.53 nM | B20
15.5 nM | B21
~91.2 nM | B22
33.1 nM | B23
6.21 nM | B24
4.45 nM | B25
1.78 nM | B26
2.56 nM | B27
